The target of test [1] is T1, biotinylated recombinant human FAP (human, UniProt Q12884 27-760, biotinylated).
T1 construct: the Biacore paragraphs only say biotinylated (recombinant) human FAP; also called biotinylated human FAP; recombinant huFAP
The test can be described thus: SPR (Biacore), biotinylated recombinant FAP.

Test [2] concerns the target T1, biotinylated recombinant human FAP. As to the kind of experiment: SPR (Biacore), biotinylated huFAP on CAP chip, Fab as analyte, 1:1 fit.
In test [3] the target is T2, human Fibroblast Activation Protein (FAP) expressed on cells (human, UniProt Q12884 1-760).
T2 construct: cell surface FAP on transfected HEK cells or NIH/3T3-huFAP clone 19 fibroblasts; also called huFAP; human FAP-transfected HEK cells
As to the kind of experiment: flow cytometry, FAP-transfected HEK cells.

The target in test [4] is T3, cynomolgus FAP expressed on cells (cynomolgus).
T3 construct: whole, on cells
As to the kind of experiment: flow cytometry, FAP-transfected HEK cells.

Test [5] addresses biotinylated recombinant cynomolgus FAP (cynomolgus, UniProt Q12884 27-760 (human entry), limits assumed, biotinylated). As to the kind of experiment: SPR (Biacore), biotinylated recombinant FAP.
For test [6], the target named is T2, human Fibroblast Activation Protein …. As to the kind of experiment: flow cytometry, human FAP-transfected HEK cells.
Test [7] addresses T4, human DPP-IV expressed on transfected HEK cells (human, UniProt P27487 1-766).
T4 construct: whole, on cells; also called dipeptidyl peptidase IV
As to the kind of experiment: flow cytometry, human DPPIV-transfected HEK cells. (Flow cytometry measures light scatter and fluorescence of single cells or particles in a stream.)

Test [8] concerns the target T5, human OX40 on cells (human, UniProt P43489 29-277).
T5 sequence: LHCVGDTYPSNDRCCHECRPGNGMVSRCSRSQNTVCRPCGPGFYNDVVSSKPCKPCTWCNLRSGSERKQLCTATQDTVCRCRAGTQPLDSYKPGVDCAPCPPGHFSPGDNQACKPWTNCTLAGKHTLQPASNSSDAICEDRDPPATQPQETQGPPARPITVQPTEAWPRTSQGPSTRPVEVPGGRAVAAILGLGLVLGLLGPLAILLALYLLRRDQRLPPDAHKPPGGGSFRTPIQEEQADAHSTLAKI
The test can be described thus: cell-based or functional assay.

The target in test [9] is T5, human OX40 on cells. The test can be described thus: flow cytometry, activated human CD4+ T cells.
For another test, the target named is T6, biotinylated human OX40 (human, UniProt P43489 29-214, limits assumed, biotinylated).
T6 sequence: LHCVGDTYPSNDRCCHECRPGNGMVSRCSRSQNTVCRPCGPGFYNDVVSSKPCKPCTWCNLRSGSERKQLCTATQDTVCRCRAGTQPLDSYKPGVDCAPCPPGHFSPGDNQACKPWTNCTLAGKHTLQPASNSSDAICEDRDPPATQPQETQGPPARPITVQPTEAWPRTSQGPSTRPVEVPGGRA
As to the kind of experiment: SPR, stressed against unstressed sample, normalised to anti-hu IgG capture. For orientation: Surface plasmon resonance follows binding to a sensor surface in real time, without labels.

In test [10] the target is T1, biotinylated recombinant human FAP. Described as above.
Test [11] concerns the target T7, FcRn (biotinylated, coupled to streptavidin-sepharose).
T7 construct: also called neonatal Fc receptor
As to the kind of experiment: FcRn affinity chromatography, pH gradient, retention compared to standards.

The target in test [12] is T5, human OX40 on cells. As to the kind of experiment: cell-based or functional assay. The source holds these as a separate data set.
Test [13] addresses T5, human OX40 on cells. The test can be described thus: flow cytometry, activated human PBMC gated on CD8+ T cells (OX40 positive), FITC anti-human Fcγ secondary, MFI baseline corrected.
For test [14], the target named is T2, human Fibroblast Activation Protein …. As to the kind of experiment: flow cytometry, NIH/3T3-huFAP clone 19 cells.
Test [15] concerns the target T5, human OX40 on cells. The test can be described thus: cell-based or functional assay. This is another data set of the same source.
The target of test [16] is T5, human OX40 on cells. As to the kind of experiment: cell-based or functional assay. The source holds these as a separate data set.
Test [17] deals with T5, human OX40 on cells. As to the kind of experiment: cell-based or functional assay. The source holds these as a separate data set.
Test [18] addresses T5, human OX40 on cells. The test can be described thus: cell-based or functional assay. This is another data set of the same source.

Positions count from the first letter of the chain named. Names and notes keep the numbering of the source. Where two headings read alike, the source gives them in different places. Some results are limits rather than exact numbers.

T7 sequence (P55899 24-297, chain 1 of 2): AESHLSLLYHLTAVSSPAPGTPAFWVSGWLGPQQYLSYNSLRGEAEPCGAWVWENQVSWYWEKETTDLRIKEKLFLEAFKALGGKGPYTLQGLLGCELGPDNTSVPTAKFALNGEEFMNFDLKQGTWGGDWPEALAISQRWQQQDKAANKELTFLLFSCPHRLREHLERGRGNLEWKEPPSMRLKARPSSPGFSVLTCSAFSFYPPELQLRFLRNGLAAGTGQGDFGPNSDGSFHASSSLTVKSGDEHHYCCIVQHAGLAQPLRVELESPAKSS
T7 sequence (P61769 21-119, chain 2 of 2, further chain): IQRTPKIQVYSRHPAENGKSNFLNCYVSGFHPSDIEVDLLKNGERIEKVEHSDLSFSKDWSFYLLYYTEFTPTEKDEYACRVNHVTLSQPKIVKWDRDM
T4 sequence (P27487 whole entry): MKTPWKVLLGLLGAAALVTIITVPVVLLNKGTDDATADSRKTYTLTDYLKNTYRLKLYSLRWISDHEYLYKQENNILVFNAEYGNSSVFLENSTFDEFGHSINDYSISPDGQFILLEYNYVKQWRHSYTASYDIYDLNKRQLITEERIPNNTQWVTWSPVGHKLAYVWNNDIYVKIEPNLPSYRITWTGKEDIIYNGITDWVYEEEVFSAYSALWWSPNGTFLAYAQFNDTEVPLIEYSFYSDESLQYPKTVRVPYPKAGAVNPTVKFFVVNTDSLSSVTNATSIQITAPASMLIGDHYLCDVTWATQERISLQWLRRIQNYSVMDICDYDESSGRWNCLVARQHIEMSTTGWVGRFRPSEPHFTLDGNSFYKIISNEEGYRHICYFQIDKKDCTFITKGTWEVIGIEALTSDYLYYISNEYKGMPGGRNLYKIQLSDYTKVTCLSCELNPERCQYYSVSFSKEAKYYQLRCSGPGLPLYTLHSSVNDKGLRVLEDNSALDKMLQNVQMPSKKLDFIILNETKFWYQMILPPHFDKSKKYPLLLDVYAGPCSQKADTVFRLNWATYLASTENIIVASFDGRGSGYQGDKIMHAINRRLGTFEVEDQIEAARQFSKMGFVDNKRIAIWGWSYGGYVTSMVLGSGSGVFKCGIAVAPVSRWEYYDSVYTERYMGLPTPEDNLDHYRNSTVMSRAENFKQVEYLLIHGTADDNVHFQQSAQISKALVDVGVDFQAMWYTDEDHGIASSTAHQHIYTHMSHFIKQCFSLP

B1: P1AD9438_Fab, anti-FAP clone 212 Fab (Fab, V domains shown)
VH: EVLLQQSGPELVKPGASVKIACKASGYTLTDYNMDWVRQSHGKSLEWIGDIYPNTGGTIYNQKFKGKATLTIDKSSSTAYMDLRSLTSEDTAVYYCTRFRGIHYAMDYWGQGTSVTVSS
VL: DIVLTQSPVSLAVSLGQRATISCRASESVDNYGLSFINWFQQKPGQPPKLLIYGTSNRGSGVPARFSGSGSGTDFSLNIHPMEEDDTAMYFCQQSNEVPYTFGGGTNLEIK
notes: Fab; also called 212 free Fab
Take B1: the Kd in [1] is 0.12 nM. In addition, in test [2], the Kd was below 0.01 nM, the koff was below 1e-06 s⁻¹ and the kon was found to be 1.06e+06 M⁻¹ s⁻¹.

B2: P1AD9438, anti-FAP clone 212 as huIgG1 P329G LALA antibody (antibody, V domains shown)
VH: B1 VH
VL: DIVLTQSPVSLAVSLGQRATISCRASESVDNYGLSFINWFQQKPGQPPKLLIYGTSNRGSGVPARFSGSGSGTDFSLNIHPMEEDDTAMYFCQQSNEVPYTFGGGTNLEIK
notes: human IgG1 with P329G, L234A, L235A; also called 212 IgG
In the case of B2, the figures for the concentration giving a half-maximal response (EC50) in test [3], in test [4] and in [6] were 0.12 mg/L, 0.3 mg/L and 0.118 mg/L, respectively. In addition, the dissociation constant Kd in test [5] was found to be 0.14 nM.

B3: anti-FAP clone 212, C-terminal Fab fusion construct (Fc fusion)
chain 1: B1 VH
chain 2: not shown
Molecule B3 yielded a 50% effective concentration (EC50) in test [3] of 2.8 mg/L. Moreover, the figures for the Kd in [1] and in test [5] were 0.62 nM and 0.64 nM, respectively.

B4: anti-human FAP clone 212, hybridoma-derived murine antibody (antibody, V domains shown)
VH: B1 VH
VL: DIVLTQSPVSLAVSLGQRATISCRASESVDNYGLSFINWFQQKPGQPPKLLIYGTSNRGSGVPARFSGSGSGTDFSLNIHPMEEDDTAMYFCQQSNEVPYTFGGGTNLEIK
notes: mu IgG1
As to B4, the binding result in test [7] is listed as “no binding (tested: 10 µg/ml)”.

B5: anti-FAP antibody 4B9 (antibody, V domains shown)
VH: EVQLLESGGGLVQPGGSLRLSCAASGFTFSSYAMSWVRQAPGKGLEWVSAIIGSGASTYYADSVKGRFTISRDNSKNTLYLQMNSLRAEDTAVYYCAKGWFGGFNYWGQGTLVTVSS
VL: EIVLTQSPGTLSLSPGERATLSCRASQSVTSSYLAWYQQKPGQAPRLLINVGSRRATGIPDRFSGSGSGTDFTLTISRLEPEDFAVYYCQQGIMLPPTFGQGTKVEIK
notes: made as in WO 2012/020006; also called FAP clone 4B9; AlexaFluor647-labeled anti FAP antibody 4B9
Take B5: in test [6], the concentration giving a half-maximal response (EC50) was determined as 0.089 mg/L.

B6: P1AE8874 OX40(CLC563) x FAP (1G1a) (3 + 1) C-terminal crossfab fusion (bispecific antibody, human IgG1, kappa, L234A L235A)
heavy 1: not shown
heavy 2: not shown
light 1: not shown
light 2: EIVLTQSPATLSLSPGERATLSCRASESVDNYGLSFINWFQQKPGQAPRLLIYGTSNRGSGIPARFSGSGSGTDFTLTISSLEPEDFAVYFCQQSNEVPYTFGGGTKVEIKSSASTKGPSVFPLAPSSKSTSGGTAALGCLVKDYFPEPVTVSWNSGALTSGVHTFPAVLQSSGLYSLSSVVTVPSSSLGTQTYICNVNHKPSNTKVDKKVEPKSC
notes: also called CLC-563 3+1
As to B6, in the test with human OX40 on cells [8], the “AUC of CD25 upregulation compared to reference compound [%]” value stood at 100% and the “EC50 of CD25 upregulation on CD4+ T cells, suboptimal TCR stimulation of human PBMC with FAP+ fibroblasts” value (“EC50 of CD25 upregulation” for short) was found to be 0.04 nM. Further, in the test with human OX40 on cells [9], it took 3.62 nM to reach a half-maximal effect (EC50). Moreover, in the test with biotinylated human OX40, the “binding activity [%] after 2 weeks at pH 6.0/40°C” value was above 90% and the “binding activity [%] after 2 weeks at pH 7.4/37°C” value was above 90%. Also, in [10], the “binding activity [%] after 2 weeks at pH 6.0/40°C” value was above 90% and the “binding activity [%] after 2 weeks at pH 7.4/37°C” value is above 90%. Besides, the “FcRn affinity (relative retention)” value in test [11] was -0.14. In the test with human OX40 on cells [12], the “EC50 of NFκB activation, HeLa_hOx40_NFkB_Luc1, w/ hu FAP+ fibroblasts” value (“EC50 of NFκB activation … w/ hu FAP+ fibroblasts” for short) was determined as 0.24 nM and the “EC50 of NFκB activation, HeLa_hOx40_NFkB_Luc1, w/o crosslinking” value (“EC50 of NFκB activation … w/o crosslinking” for short) stood at 0.79 nM. Besides, the “EC50 (read off the curve)” value with human OX40 on cells [13] was around 3 nM. In [14], this molecule showed an EC50 of 2.52 nM.

B7: P1AE8871 OX40(CLC563) x FAP (1G1a) (2 + 1) C-terminal crossfab fusion (bispecific antibody, human IgG1, kappa, L234A L235A)
heavy 1: not shown
heavy 2: not shown
light 1: not shown
light 2: B6 light 2
notes: also called CLC-563 2+1
Consider B7, for which, in the test with human OX40 on cells [8], the “AUC of CD25 upregulation compared to reference compound [%]” value was found to be 99% and the “EC50 of CD25 upregulation” value was determined as 0.06 nM. Besides, the EC50 with human OX40 on cells [9] came out at 3.19 nM. Further, the “EC50 of NFκB activation … w/ hu FAP+ fibroblasts” value in the test with human OX40 on cells [12] was 0.21 nM. Further, the half-maximal effective concentration (EC50 (read off the curve)) in the test with human OX40 on cells [13] is around 2 nM. Besides, the concentration giving a half-maximal response (EC50) in test [14] was 2.51 nM.

B8: P1AF6455 OX40(CLC563) x FAP (1G1a_EPKSCS) (3 + 1) C-terminal crossfab fusion (bispecific antibody, human IgG1, kappa, L234A L235A)
heavy 1: not shown
heavy 2: not shown
light 1: not shown
light 2: EIVLTQSPATLSLSPGERATLSCRASESVDNYGLSFINWFQQKPGQAPRLLIYGTSNRGSGIPARFSGSGSGTDFTLTISSLEPEDFAVYFCQQSNEVPYTFGGGTKVEIKSSASTKGPSVFPLAPSSKSTSGGTAALGCLVKDYFPEPVTVSWNSGALTSGVHTFPAVLQSSGLYSLSSVVTVPSSSLGTQTYICNVNHKPSNTKVDKKVEPKSCS
notes: also called CLC-563, S-variant 3+1; C2
Regarding B8, the EC50 came to 1.47 nM with human OX40 on cells [9] and 1.71 nM in [14]. Besides, the “binding activity [%] after 2 weeks at pH 6.0/40°C” value with biotinylated human OX40 is 100%; in [10], 98%. Also, the results for the “binding activity [%] after 2 weeks at pH 7.4/37°C” value (with biotinylated human OX40; in test [10]) were 100% and 96%, respectively. In addition, in the test with human OX40 on cells [15], the “EC50 of NFκB activation … w/ hu FAP+ fibroblasts” value turned out to be 0.2 nM. Also, in the test with human OX40 on cells [15], the “EC50 of NFκB activation … w/o crosslinking” value was determined as 0.8 nM. For the same molecule, the “EC50 of increased CEACAM5 TCB mediated cytokine secretion of human PBMC with FAP+ fibroblasts” value in the test with human OX40 on cells [16] was 0.058 nM. In the test with human OX40 on cells [17], the “EC50 of CD25 upregulation” value came out at 0.003 nM. In addition, the “EC50 of suppression of TGFβ-induced FoxP3 (FoxP3 MFI) on CD4+ CD25+ Treg cells, FAP-coated beads” value with human OX40 on cells [18] was determined as 0.25 nM. In test [11], the “FcRn affinity (relative retention)” value was -0.1.

B9: P1AF6454 OX40(CLC563) x FAP (1G1a_EPKSCD) (3 + 1) C-terminal crossfab fusion (bispecific antibody, human IgG1, kappa, L234A L235A)
heavy 1: not shown
heavy 2: not shown
light 1: not shown
light 2: B8 light 2 with S217D
notes: also called CLC-563, D-variant 3+1; 3+1 CLC563/H212-D
In turn, B9 displayed a concentration giving a half-maximal response (EC50) with human OX40 on cells [9] of 1.64 nM. For the same molecule, in the test with biotinylated human OX40, the “binding activity [%] after 2 weeks at pH 6.0/40°C” value worked out at 100% and the “binding activity [%] after 2 weeks at pH 7.4/37°C” value was 99%. In addition, in test [10], the “binding activity [%] after 2 weeks at pH 6.0/40°C” value came to 99% and the “binding activity [%] after 2 weeks at pH 7.4/37°C” value worked out at 95%. In the test with human OX40 on cells [15], the “EC50 of NFκB activation … w/ hu FAP+ fibroblasts” value was 0.2 nM and the “EC50 of NFκB activation … w/o crosslinking” value was 1.9 nM. Also, the “EC50 of increased CEACAM5 TCB mediated cytokine secretion of human PBMC with FAP+ fibroblasts” value in the test with human OX40 on cells [16] came out at 0.144 nM. Also, the “EC50 of CD25 upregulation” value with human OX40 on cells [17] is 0.001 nM. Also, in the test with human OX40 on cells [18], the “EC50 of suppression of TGFβ-induced FoxP3 (FoxP3 MFI) on CD4+ CD25+ Treg cells, FAP-coated beads” value came to 0.11 nM. In addition, the “FcRn affinity (relative retention)” value in [11] was -0.1. Also, in test [14], the response was half-maximal at 1.22 nM (EC50).

Usually Kd stands for a measure of binding affinity in units of concentration. Broadly, the koff is a measure of how fast the partners let go of each other. What is called kon is the second-order rate constant of association. As usually defined, the EC50 is the concentration at which the effect is half-maximal. High values mean a need for much substance, low ones an effect from little substance. As a reminder, the EC50 (read off the curve) is the concentration that produces a half-maximal response. Lower therefore signals greater potency.

Source of the values: patent publication US20240117049A1 (Hoffmann-La Roche, published 2024).
